Molecular target: T1, FN14 on transiently transfected 293-F cells (human) (UniProt Q9NP84)
T1 sequence (looked up): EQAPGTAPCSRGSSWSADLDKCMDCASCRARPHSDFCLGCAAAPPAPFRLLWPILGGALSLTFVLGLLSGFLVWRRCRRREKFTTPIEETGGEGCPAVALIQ
Test: apparent affinity of the recombinant chimeric mAb, saturation binding

Kd: 0.26 nM
B1: anti-FN14 mAb FS24 (after 7 additional selections, recombinant chimeric mAb) (antibody, from another filing, V domains shown)
VH: AVTLDESGGGLQTPGGALSLVCKASGFTFSSYDMAWVRQEPGKGLEWVAGIDYDGSGRRYAPAVKGRATISRDNGQSTLRLQLNNLRAEDTGTYYCTKCGYTGGCDYEGGYIDAWGHGTEVIVSS
VL: ALTQPSSVSANPGETVKITCSGGGSSYYAGSYYYGWYQQKAPGSAPVTLIYYNNKRPSDIPSRFSGSLSGSTNTLTITGVRADDEAVYFCGSIDNSGAAFGAGTTLTVLG

From US20130261012A1
